T1: human IL2Ra (human, UniProt P01589 22-240, limits assumed)
T1 construct: bought protein, coated on the plate; also called hIL2RA; IL-2 receptor alpha
T1 sequence (looked up): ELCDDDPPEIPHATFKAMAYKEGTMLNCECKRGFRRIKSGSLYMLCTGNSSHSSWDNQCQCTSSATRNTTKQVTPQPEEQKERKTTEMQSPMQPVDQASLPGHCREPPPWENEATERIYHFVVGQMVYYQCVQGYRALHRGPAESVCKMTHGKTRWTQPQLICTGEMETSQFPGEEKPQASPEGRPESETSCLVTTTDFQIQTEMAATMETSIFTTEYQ

T2: human IL-11 (human, UniProt P20809 22-199)
T2 sequence: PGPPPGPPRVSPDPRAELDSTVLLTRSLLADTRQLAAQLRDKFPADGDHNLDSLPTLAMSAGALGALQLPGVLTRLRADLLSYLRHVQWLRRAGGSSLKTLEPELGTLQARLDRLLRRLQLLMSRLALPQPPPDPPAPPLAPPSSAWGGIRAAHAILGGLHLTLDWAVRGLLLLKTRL

T3: murine IL-11 (mouse, UniProt P47873 22-199)
T3 sequence: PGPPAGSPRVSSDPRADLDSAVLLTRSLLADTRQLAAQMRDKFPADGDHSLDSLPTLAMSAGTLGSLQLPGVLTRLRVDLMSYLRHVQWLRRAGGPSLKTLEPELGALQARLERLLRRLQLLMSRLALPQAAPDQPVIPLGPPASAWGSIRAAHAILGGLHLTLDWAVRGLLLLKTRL


What was measured:
[1] = molecular target: T1, human IL2Ra; experiment: IL2Ra direct binding ELISA, signal ratio to isotype control
Method: IL2RA (Peprotech, Germany, #200-02RC) was coated at 1 or 0 μg/ml (buffer only control) in 30 μl coating buffer (Candor, #113500) per well on a 384 well microtiter plate (Maxisorb, Nunc, #460518) over night at 4-8° C. After two washes with 50 μl/well washing buffer (PBS+0.05% Tween, pH 7.4), the plates were incubated for two hours at room temperature with 50 μl/well SmartBlock (Candor, #113500). After blocking, the plates were washed three times with washing buffer. Then, a dilution series of the respective antibody (1E-7 [M] down to 2E-13 [M]) in PBS+0.05% Tween, 10% SmartBlock were added in 30 μl to the microtiter plate and incubated for 90 min at room temperature. After three additional washes, 30 μl anti mouse IgG HRP-conjugated antibody (Biotechne, HAF007), diluted 1:1000 in PBS+0.05% Tween (pH 7.4), were added per well and incubated for one hour. After three additional washes, a mixture of Amplex red (Invitrogen, #12222, 10 mM stock solution in DMSO) 1:1000 diluted in PBS and H2O2 (30%, Merck, #107209)) diluted 1:10000 in PBS were added as substrate with 30 μl per well and incubated for 20 min in the dark. Relative fluorescence was measured with a microtiter plate reader at 535/590 nm.
Next, the 42 antibodies were subjected to an IL2Ra binding ELISA as described in Example 20.

[2] = molecular target: T2, human IL-11; experiment: cell-based or functional assay
[3] = molecular target: T3, murine IL-11; experiment: cell-based or functional assay

Binder | hIL2RA ELISA Binding: Ratio to Isotpye [1] [ratio] | RGA Efficacy (%) [2] [%] | RGA IC50 [2] [nM] | RGA Efficacy (%) [3] [%] | RGA IC50 [3] [nM]
TPP-26318 (antibody, V domains shown) VH: EVQLLESGGGLVQPGGSLRLSCAASGFTFSSYGMHWVRQAPGKGLEWVSVISYDGSYKYYADSVKGRFTISRDNSKNTLYLQMNSLRAEDTAVYYCAAGVPDYWGQGTLVTVSS VL: QSVLTQPPSASGTPGQRVTISCTGSSSNIGAGYFVHWYQQLPGTAPKLLIYSNNERPSGVPDRFSGSKSGTSASLAISGLRSEDEADYYCAAWDDSLNGPVFGGGTKLTVL | 267 | 45.9 | 2.4 | 82.3 | 4.7
TPP-26321 (antibody, V domains shown) VH: EVQLLESGGGLVQPGGSLRLSCAASGFTFSSYGMHWVRQAPGKGLEWVSVISYDGSYKYYADSVKGRFTISRDNSKNTLYLQMNSLRAEDTAVYYCAAGVPDYWGQGTLVTVSS VL: QSVLTQPPSASGTPGQRVTISCTGSSSNIGAGYDVHWYQQLPGTAPKLLIYSNNERPSGVPDRFSGSKSGTSASLAISGLRSEDEADYYCAAWDLSLNGPVFGGGTKLTVL | 182 | 71.3 | 2.1 | 93.5 | 1.1
TPP-26323 (antibody, V domains shown) VH: EVQLLESGGGLVQPGGSLRLSCAASGFTFSSYGMHWVRQAPGKGLEWVSVISYDGSYKYYADSVKGRFTISRDNSKNTLYLQMNSLRAEDTAVYYCAAGVPDYWGQGTLVTVSS VL: QSVLTQPPSASGTPGQRVTISCTGSSSNIGAGYDVHWYQQLPGTAPKLLIYSNNERPSGVPDRFSGSKSGTSASLAISGLRSEDEADYYCAAWDGSLNGPVFGGGTKLTVL | 256 | 57.6 | 2 | 95.9 | 0.92
TPP-26324 (antibody, V domains shown) VH: EVQLLESGGGLVQPGGSLRLSCAASGFTFSSYGMHWVRQAPGKGLEWVSVISYDGSYKYYRDSVKGRFTISRDNSKNTLYLQMNSLRAEDTAVYYCAAGVPDYWGQGTLVTVSS VL: QSVLTQPPSASGTPGQRVTISCTGSSSNIGAGYDVHWYQQLPGTAPKLLIYSNNERPSGVPDRFSGSKSGTSASLAISGLRSEDEADYYCAAWDDSLNGPVFGGGTKLTVL | 247 | 59 | 1.5 | 92.4 | 1.3
TPP-26319 (antibody, V domains shown) VH: EVQLLESGGGLVQPGGSLRLSCAASGFTFSSYGMHWVRQAPGKGLEWVSVISYDGSYKYYADSVKGRFTISRDNSKNTLYLQMNSLRAEDTAVYYCAAGVPDYWGQGTLVTVSS VL: QSVLTQPPSASGTPGQRVTISCTGSSSNIGAGYDVHWYQQLPGTAPKLLIYSNNEKPSGVPDRFSGSKSGTSASLAISGLRSEDEADYYCAAWDDSLNGPVFGGGTKLTVL | 235 | 48.6 | 7.4 | 91.1 | 1.5
TPP-26320 (antibody, V domains shown) VH: EVQLLESGGGLVQPGGSLRLSCAASGFTFSSYGMHWVRQAPGKGLEWVSVISYDGSYKYYADSVKGRFTISRDNSKNTLYLQMNSLRAEDTAVYYCAAGVPDYWGQGTLVTVSS VL: QSVLTQPPSASGTPGQRVTISCTGSSSNIGAGYDVHWYQQLPGTAPKLLIYSNEERPSGVPDRFSGSKSGTSASLAISGLRSEDEADYYCAAWDDSLNGPVFGGGTKLTVL | 260 | 70.3 | 7.4 | 100 | 1.5

The remaining lines, values ahead:

hIL2RA ELISA Binding: Ratio to Isotpye [1] [ratio] | RGA Efficacy (%) [2] [%] | RGA IC50 [2] [nM] | RGA Efficacy (%) [3] [%] | RGA IC50 [3] [nM] | Binder
247 | 67.1 | 2.6 | 95.5 | 1 | TPP-26329 (antibody, V domains shown) VH: EVQLLESGGGLVQPGGSLRLSCAASGFTFSSWGMHWVRQAPGKGLEWVSVISYDGSYKYYADSVKGRFTISRDNSKNTLYLQMNSLRAEDTAVYYCAAGVPDYWGQGTLVTVSS VL: QSVLTQPPSASGTPGQRVTISCTGSSSNIGAGYDVHWYQQLPGTAPKLLIYSNNERPSGVPDRFSGSKSGTSASLAISGLRSEDEADYYCAAWDDSLNGPVFGGGTKLTVL
19 | 0.8 |  | 0.9 |  | TPP-26332 (antibody, V domains shown) VH: EVQLLESGGGLVQPGGSLRLSCAASGFTFSSYKMHWVRQAPGKGLEWVSVISYDGSYKYYADSVKGRFTISRDNSKNTLYLQMNSLRAEDTAVYYCAAGVPDYWGQGTLVTVSS VL: QSVLTQPPSASGTPGQRVTISCTGSSSNIGAGYDVHWYQQLPGTAPKLLIYSNNERPSGVPDRFSGSKSGTSASLAISGLRSEDEADYYCAAWDDSLNGPVFGGGTKLTVL
264 | 64.8 | 3.4 | 88.2 | 1.3 | TPP-26330 (antibody, V domains shown) VH: EVQLLESGGGLVQPGGSLRLSCAASGFTFSFYGMHWVRQAPGKGLEWVSVISYDGSYKYYADSVKGRFTISRDNSKNTLYLQMNSLRAEDTAVYYCAAGVPDYWGQGTLVTVSS VL: QSVLTQPPSASGTPGQRVTISCTGSSSNIGAGYDVHWYQQLPGTAPKLLIYSNNERPSGVPDRFSGSKSGTSASLAISGLRSEDEADYYCAAWDDSLNGPVFGGGTKLTVL
542 | 81.4 | 1.7 | 93 | 1.3 | TPP-26325 (antibody, V domains shown) VH: EVQLLESGGGLVQPGGSLRLSCAASGFTFSWYGMHWVRQAPGKGLEWVSVISYDGSYKYYADSVKGRFTISRDNSKNTLYLQMNSLRAEDTAVYYCAAGVPDYWGQGTLVTVSS VL: QSVLTQPPSASGTPGQRVTISCTGSSSNIGAGYDVHWYQQLPGTAPKLLIYSNNERPSGVPDRFSGSKSGTSASLAISGLRSEDEADYYCAAWDDSLNGPVFGGGTKLTVL
107 | 54.9 | 5.4 | 90.9 | 1.5 | TPP-26331 (antibody, V domains shown) VH: EVQLLESGGGLVQPGGSLRLSCAASGFTFSSYGGHWVRQAPGKGLEWVSVISYDGSYKYYADSVKGRFTISRDNSKNTLYLQMNSLRAEDTAVYYCAAGVPDYWGQGTLVTVSS VL: QSVLTQPPSASGTPGQRVTISCTGSSSNIGAGYDVHWYQQLPGTAPKLLIYSNNERPSGVPDRFSGSKSGTSASLAISGLRSEDEADYYCAAWDDSLNGPVFGGGTKLTVL
516 | 72 | 5.4 | 83 | 2 | TPP-26326 (antibody, V domains shown) VH: EVQLLESGGGLVQPGGSLRLSCAASGFTFSYYGMHWVRQAPGKGLEWVSVISYDGSYKYYADSVKGRFTISRDNSKNTLYLQMNSLRAEDTAVYYCAAGVPDYWGQGTLVTVSS VL: QSVLTQPPSASGTPGQRVTISCTGSSSNIGAGYDVHWYQQLPGTAPKLLIYSNNERPSGVPDRFSGSKSGTSASLAISGLRSEDEADYYCAAWDDSLNGPVFGGGTKLTVL
11 | 15 |  | 38 | 470 | TPP-26327 (antibody, V domains shown) VH: EVQLLESGGGLVQPGGSLRLSCAASGFTFSSYGMHWVRQAPGKGLEWVSVIRYDGSYKYYADSVKGRFTISRDNSKNTLYLQMNSLRAEDTAVYYCAAGVPDYWGQGTLVTVSS VL: QSVLTQPPSASGTPGQRVTISCTGSSSNIGAGYDVHWYQQLPGTAPKLLIYSNNERPSGVPDRFSGSKSGTSASLAISGLRSEDEADYYCAAWDDSLNGPVFGGGTKLTVL
27 | 18.6 |  | 70.8 | 64 | TPP-26328 (antibody, V domains shown) VH: EVQLLESGGGLVQPGGSLRLSCAASGFTFSSYGMHWVRQAPGKGLEWVSVISYDGSYKYYADSVKGRFTISRDNSKNTLYLQMNSLRAEDTAVYYCAATVPDYWGQGTLVTVSS VL: QSVLTQPPSASGTPGQRVTISCTGSSSNIGAGYDVHWYQQLPGTAPKLLIYSNNERPSGVPDRFSGSKSGTSASLAISGLRSEDEADYYCAAWDDSLNGPVFGGGTKLTVL

From patent publication US20240317847A1 (Bayer, published 2024)
